Laboratory results: the RNAGym collection of RNA variant scans (doi:10.7554/elife.80360)

B1: Hairpin Ribozyme (parent)
chain: GUCCUCUUUCACGUGCGCGUGAAAGAGAGAAGUGAACCAGAGAAACACACGUUGUGGUAUAUUACCUGGUA

Variants of: B1
Assay: self-cleavage, relative activity (ratio to wild type); higher = more cleavage; co-transcriptional

In order of rising self-cleavage:
1. GUCCCCUUUCACGUGCGCGUGAAAGAGAGAAGUGAACCAGAGAAAUACACGUUGUGGUAUAUUACCUGGUA [U5C C46U]  0.023
2. GUCCCCUUUCACGUGCGCGUGAAAGAGAGAAGCGAACCAGAGAAACACACGUUGUGGUAUAUUACCUGGUA [U5C U33C]  0.0316
3. GUCCGCUUUCACGUGCGCGUGAAAGAGAGAAGUGAACCAGAGAAACACACGUUGUGGUAUAUUACAUGGUA [U5G C66A]  0.0473
4. GUCCGCUUUCACGUGCGCGUGAAAGAGAGAAGUGAACCAGAGAAACACACGUUGUGGUAUAUUAGCUGGUA [U5G C65G]  0.0535
5. GUCCCCUUUCACGUGCGCGUGAAAGAGAGAAGUGAACCAGAGAAACACACGUUGUGGUAUAUGACCUGGUA [U5C U63G]  0.0578
6. GUCCGCUUUCACGUGCGCGUGAAAGAGAGAUGUGAACCAGAGAAACACACGUUGUGGUAUAUUACCUGGUA [U5G A31U]  0.0772
7. GUCCGCUUUCACGUGCGCGUGAAAGAGCGAAGUGAACCAGAGAAACACACGUUGUGGUAUAUUACCUGGUA [U5G A28C]  0.0791
8. GUCCCCUUUCACGUGCGCGUGAAAGAUAGAAGUGAACCAGAGAAACACACGUUGUGGUAUAUUACCUGGUA [U5C G27U]  0.0794
9. GUCCGCUUUCACGUGCGCGUGAAAGAGAGAAGUGAACCAGAGAUACACACGUUGUGGUAUAUUACCUGGUA [U5G A44U]  0.093
10. GUCCGCUUUCACGUGCGCGUGAAAGAGAGAAGUGAACCGGAGAAACACACGUUGUGGUAUAUUACCUGGUA [U5G A39G]  0.0943
11. GUCCCCUUUCACGUGCGCGUGAAAGAGAAAAGUGAACCAGAGAAACACACGUUGUGGUAUAUUACCUGGUA [U5C G29A]  0.106
12. GUCCCCUUUCACGUGCGCGUGAAAGAGAGAAGUGAACCAGAGAAACACACGUUGUAGUAUAUUACCUGGUA [U5C G56A]  0.107
13. GUCCGCUUUCACGUGCGCGUGAAAGAGAGAAGUGAACCAGAGAAACACACGUUGUGGUAUUUUACCUGGUA [U5G A61U]  0.108
14. GUCCGCUUUCACGUGCGCGUGAAAGAGAGAAGUGAACCAGAGAAACACACGUUGUGGUAUCUUACCUGGUA [U5G A61C]  0.112
15. GUCCCCUUUCACGUGCGCGUGAAAGAGAGAAGUGAACCAGAGAAACACACGUUGUGGUAUAUUACGUGGUA [U5C C66G]  0.113
16. GUCCGCUUUCACGUGCGCGUGAAAGAGAGAAGUGAACAAGAGAAACACACGUUGUGGUAUAUUACCUGGUA [U5G C38A]  0.12
17. GUCCGCUUUCACGUGCGCGUGAAAGAGAGAAGUGAACCAGAGAAGCACACGUUGUGGUAUAUUACCUGGUA [U5G A45G]  0.121
18. GUCCGCUUUCACGUGCGCGUGAAAGAGAGAAGUGAACCAGAGAAACGCACGUUGUGGUAUAUUACCUGGUA [U5G A47G]  0.123
19. GUCCGCUUUCACGUGCGCGUGAAAGAGAGAAGUGAAGCAGAGAAACACACGUUGUGGUAUAUUACCUGGUA [U5G C37G]  0.125
20. GUCCGCUUUCACGUGCGCGUGAAAGAGAGAAGUGAACCAGAGAAACACUCGUUGUGGUAUAUUACCUGGUA [U5G A49U]  0.127
21. GUCCCCUUUCACGUGCGCGUGAAAGAGAGAAGUGAACCAGAGAAACACACGUUGUUGUAUAUUACCUGGUA [U5C G56U]  0.128
22. GUCCGCUUUCACGUGCGCGUGAAAGAGAGAAGUGAACCAGGGAAACACACGUUGUGGUAUAUUACCUGGUA [U5G A41G]  0.129
23. GUCCGCUUUCACGUGCGCGUGAAAGAGAGGAGUGAACCAGAGAAACACACGUUGUGGUAUAUUACCUGGUA [U5G A30G]  0.144
24. GUCCCCUUUCACGUGCGCGUGAAAGAGAGAAGUGAACCAGAGAAACACACGUUGUGGUAUAUUACCCGGUA [U5C U67C]  0.144
25. GUCCGCUUUCACGUGCGCGUGAAAGAGAGAAGUGAACCAGAGAAACACAUGUUGUGGUAUAUUACCUGGUA [U5G C50U]  0.147
26. GUCCCCUUUCACGUGCGCGUGAAAGAGAGAAGAGAACCAGAGAAACACACGUUGUGGUAUAUUACCUGGUA [U5C U33A]  0.149
27. GUCCCCUUUCACGUGCGCGUGAAAGACAGAAGUGAACCAGAGAAACACACGUUGUGGUAUAUUACCUGGUA [U5C G27C]  0.15
28. GUCCGCUUUCACGUGCGCGUGAAAGAGAGAAGUGAACCAGAGUAACACACGUUGUGGUAUAUUACCUGGUA [U5G A43U]  0.155
29. GUCCCCUUUCACGUGCGCGUGAAAGAGAGAAGUGAACCAGAGAAACACACGUUGUGGUAUAUUACCUGAUA [U5C G69A]  0.158
30. GUCCCCUUUCACGUGCGCGUGAAAGAGAGAAGUGAACCAGAGAAACACACGUUGUGGUAUAGUACCUGGUA [U5C U62G]  0.159
31. GUCCGCUUUCACGUGCGCGUGAAAGAGAGAAGUGAACCAGAGAAACACACGUUGUGGUAUAUUUCCUGGUA [U5G A64U]  0.161
32. GUCCCCUUUCACGUGCGCGUGAAAGAGAGAAAUGAACCAGAGAAACACACGUUGUGGUAUAUUACCUGGUA [U5C G32A]  0.162
33. GUCCCCUUUCACGUGCGCGUGAAAGAGAGAAGUGAACCAGAUAAACACACGUUGUGGUAUAUUACCUGGUA [U5C G42U]  0.164
34. GUCCCCUUUCACGUGCGCGUGAAAGAGAGAAGUGAACAAGAGAAACACACGUUGUGGUAUAUUACCUGGUA [U5C C38A]  0.168
35. GUCCCCUUUCACGUGCGCGUGAAAGAGAGAAGUGAACCAGAGAAACACACGUUCUGGUAUAUUACCUGGUA [U5C G54C]  0.169
36. GUCCCCUUUCACGUGCGCGUGAAAGAGAGAAGUGAACCAGAGAAACACAUGUUGUGGUAUAUUACCUGGUA [U5C C50U]  0.17
37. GUCCGCUUUCCCGUGCGCGUGAAAGAGAGAAGUGAACCAGAGAAACACACGUUGUGGUAUAUUACCUGGUA [U5G A11C]  0.175
38. GUCCCCUUUCACGUGCGCGUGAAAGAGAGAAGUGAAACAGAGAAACACACGUUGUGGUAUAUUACCUGGUA [U5C C37A]  0.178
39. GUCCGCUUUCACGUGCGCGUGAAAGAGAGAAGUGAACCAGAGAAAAACACGUUGUGGUAUAUUACCUGGUA [U5G C46A]  0.195
40. GUCCGCUUUCACGUGCGCGUGAAAGAGAGAAGUGAACCAGAGAAACAUACGUUGUGGUAUAUUACCUGGUA [U5G C48U]  0.196
41. GUCCCCUUUCACGUGCGCGUGAAAGAGAGAAGGGAACCAGAGAAACACACGUUGUGGUAUAUUACCUGGUA [U5C U33G]  0.208
42. GUCCCCUUUCACGUGCGCGUGAAAGAGAGAAGUGAACCAGAGAAACACACGUUGUGGAAUAUUACCUGGUA [U5C U58A]  0.21
43. GUCCGCUUUCACGUGCGCGUGAAAGAGUGAAGUGAACCAGAGAAACACACGUUGUGGUAUAUUACCUGGUA [U5G A28U]  0.242
44. GUCCGCUUUCACGUGCGCGUGAAAGAGAGAAGUGCACCAGAGAAACACACGUUGUGGUAUAUUACCUGGUA [U5G A35C]  0.254
45. GUCCGCUUUCACGUGCGCGUGAAAGAGAGAAGUGAACCAGAGCAACACACGUUGUGGUAUAUUACCUGGUA [U5G A43C]  0.269
46. GUCCCCUUUCACGUGCGCGUGAAAGAGAGAAGUGAACCAGAGAAACACACGUUGUGGUAUAUUACCUGGCA [U5C U70C]  0.277
47. GUCCGCUUUCACGUGCGCGUGAAAGGGAGAAGUGAACCAGAGAAACACACGUUGUGGUAUAUUACCUGGUA [U5G A26G]  0.286
48. GUCCGCUUUCACGUGCGCGUGAAAGAGAGAAGUGAACCAGAGAAACACACGUUGUGGUAUAUUACCUGGUA [U5G]  0.324
49. GUCCCCUUUCACGUGCGCGUGAAAGAGAGAAGUGAACCAGACAAACACACGUUGUGGUAUAUUACCUGGUA [U5C G42C]  0.327
50. GUCCGCUUUCACGUGCGCGUGAAGGAGAGAAGUGAACCAGAGAAACACACGUUGUGGUAUAUUACCUGGUA [U5G A24G]  0.331
51. GUCCGCUUUCACGUGCCCGUGAAAGAGAGAAGUGAACCAGAGAAACACACGUUGUGGUAUAUUACCUGGUA [U5G G17C]  0.35
52. GUCCCCUUUCACGUGCGCGUGAAAGAGAGAAGUGAACCAGAGAAACACACGUUGGGGUAUAUUACCUGGUA [U5C U55G]  0.351
53. GUCCGCUUUCACGUGCGCGUGAAAGAGAGAAGUGGACCAGAGAAACACACGUUGUGGUAUAUUACCUGGUA [U5G A35G]  0.36
54. GUCCCCGUUCACGUGCGCGUGAAAGAGAGAAGUGAACCAGAGAAACACACGUUGUGGUAUAUUACCUGGUA [U5C U7G]  0.365
55. GUCCGCUUUCACGUGCGCGUGAGAGAGAGAAGUGAACCAGAGAAACACACGUUGUGGUAUAUUACCUGGUA [U5G A23G]  0.372
56. GUCCCCUUUCACGUGCGCGUGAAAGAGAGAAGUGAACCAGAGAAACACACGUUGUGGUAUAUUACUUGGUA [U5C C66U]  0.38
57. GUCCGCUUUCACGUGCGCGUGAAAGAGAGAAGUGACCCAGAGAAACACACGUUGUGGUAUAUUACCUGGUA [U5G A36C]  0.38
58. GUCCCCUUUCACGGGCGCGUGAAAGAGAGAAGUGAACCAGAGAAACACACGUUGUGGUAUAUUACCUGGUA [U5C U14G]  0.385
59. GUCCCCAUUCACGUGCGCGUGAAAGAGAGAAGUGAACCAGAGAAACACACGUUGUGGUAUAUUACCUGGUA [U5C U7A]  0.395
60. GUCCGCUUUCACGUACGCGUGAAAGAGAGAAGUGAACCAGAGAAACACACGUUGUGGUAUAUUACCUGGUA [U5G G15A]  0.407
61. GUCCCCUUUCACGUGCGCAUGAAAGAGAGAAGUGAACCAGAGAAACACACGUUGUGGUAUAUUACCUGGUA [U5C G19A]  0.422
62. GUCCCCUUUCACGUGCGCGUGAAAGAGAGAAGUGAACCAGAGAAACACACGUUAUGGUAUAUUACCUGGUA [U5C G54A]  0.467
63. GUCCCCUUUCACGUCCGCGUGAAAGAGAGAAGUGAACCAGAGAAACACACGUUGUGGUAUAUUACCUGGUA [U5C G15C]  0.469
64. GUCCCCUUUCACGUGCGCGUGAAAGAGAGAAGUGAACCAGAGAAACACACGUUUUGGUAUAUUACCUGGUA [U5C G54U]  0.492
65. GUCCCCUUUCACGUGCGCGUGAAAGAGAGAAGUGAACCAGAGAAACACACGUUGUGGCAUAUUACCUGGUA [U5C U58C]  0.496
66. GUCCGCUUUCACGUGCGCGUGAAAGUGAGAAGUGAACCAGAGAAACACACGUUGUGGUAUAUUACCUGGUA [U5G A26U]  0.51
67. GUCCCCUUUCACGUGCGCGUGAAAGAGAGAAGUGAACCAGAGAAACACACGUUGUGGUAUAUUAACUGGUA [U5C C65A]  0.511
68. GUCCCCUUUCACGUGCGCGAGAAAGAGAGAAGUGAACCAGAGAAACACACGUUGUGGUAUAUUACCUGGUA [U5C U20A]  0.532
69. GUCCCCUUUCACGCGCGCGUGAAAGAGAGAAGUGAACCAGAGAAACACACGUUGUGGUAUAUUACCUGGUA [U5C U14C]  0.557
70. GUCCGCUUUCACGUGCGCGUGAAAGAGAGAAGUGAACCAGCGAAACACACGUUGUGGUAUAUUACCUGGUA [U5G A41C]  0.571
71. GUCCCCUUUCACGUUCGCGUGAAAGAGAGAAGUGAACCAGAGAAACACACGUUGUGGUAUAUUACCUGGUA [U5C G15U]  0.574
72. GUCCGCUUUCACGUGCGGGUGAAAGAGAGAAGUGAACCAGAGAAACACACGUUGUGGUAUAUUACCUGGUA [U5G C18G]  0.577
73. GUCCGCUUUCACGUGCGCGUGAAAGAGAGAAGUGAACCAGUGAAACACACGUUGUGGUAUAUUACCUGGUA [U5G A41U]  0.607
74. GUCCCCUUUCACGUGCACGUGAAAGAGAGAAGUGAACCAGAGAAACACACGUUGUGGUAUAUUACCUGGUA [U5C G17A]  0.644
75. GUCCGCUUUCACGUGCGCGUGAAAGAGAGAAGUGAACCAGAGAAACACACGUUGUGGUAUAUUACCUGGUC [U5G A71C]  0.732
76. GUCCCCUUUCACGUGCUCGUGAAAGAGAGAAGUGAACCAGAGAAACACACGUUGUGGUAUAUUACCUGGUA [U5C G17U]  0.794
